Values belong to the binder of their own block, whether it stands above or below them.
B2: TGF-β2 homodimer (growth factor domain), unlabelled (ligand)
chain: ALDAAYCFRNVQDNCCLRPLYIDFKRDLGWKWIHEPKGYNANFCAGACPYLWSSDTQHSRVLSLYNTINPEASASPCCVSQDLEPLTILYYIGKTPKIEQLSNMIVKSCKCS

Experiments:
[1] = target: T1, TGF-β receptor type II (TGFBR2), extracellular domain (UniProt P37173 23-166); assay: SPR; 1 µM ratBGO-Y248A
[2] = target: T1, TGF-β receptor type II (TGFBR2), …; assay: SPR
[3] = target: T1, TGF-β receptor type II (TGFBR2), …; assay: SPR; 1 µM ratBGO-zfBL
[4] = target: T1, TGF-β receptor type II (TGFBR2), …; assay: SPR; 1 µM zfBGO
[5] = target: T1, TGF-β receptor type II (TGFBR2), …; assay: SPR; 1 µM ratBGO
[6] = target: B2; assay: SPR
[7] = target: T2, inhibin A (InhA), mature heterodimer, unlabelled (UniProt P05111 233-366; P08476 311-426); assay: SPR
T2 chain 1: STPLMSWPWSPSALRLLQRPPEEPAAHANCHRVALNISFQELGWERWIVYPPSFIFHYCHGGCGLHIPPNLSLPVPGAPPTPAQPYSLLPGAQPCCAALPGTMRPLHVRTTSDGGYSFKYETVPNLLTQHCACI
T2 chain 2: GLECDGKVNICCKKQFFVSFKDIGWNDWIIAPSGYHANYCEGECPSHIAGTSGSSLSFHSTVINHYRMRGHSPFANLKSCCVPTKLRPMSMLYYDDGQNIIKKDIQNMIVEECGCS

[8] = target: T3, biotinylated TGF-β2 homodimer (human, biotin (EZ-Link Amine-PEG3-Biotin coupled with EDC and sulfo-NHS)); assay: SPR
T3 chain: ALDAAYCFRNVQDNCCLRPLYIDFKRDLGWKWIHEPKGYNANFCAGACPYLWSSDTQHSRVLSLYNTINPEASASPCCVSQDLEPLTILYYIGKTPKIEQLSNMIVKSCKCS

Kd [1]: > 10000 nM
B1: TGF-β2 on the chip with ratBGO-Y248A bound (1 µM ratBGO-Y248A in the buffer) (complex)
chain 1: ALDAAYCFRNVQDNCCLRPLYIDFKRDLGWKWIHEPKGYNANFCAGACPYLWSSDTQHSRVLSLYNTINPEASASPCCVSQDLEPLTILYYIGKTPKIEQLSNMIVKSCKCS
chain 2: GSPCELSPINASHPVQALMESFTVLSGCASRGTTGLPREVHVLNLRSTDQGPGQRQREVTLHLNPIASVHTHHKPIVFLLNSPQPLVWHLKTERLAAGVPRLFLVSEGSVVQFPSGNFSLTAETEERNFPQENEHLLRWAQKEYGAVTSFTELKIARNIYIKVGEDQVFPPTCNIGKNFLSLNYLAEYLQPKAAEGCVLPSQPHEKEVHIIELITPSSNPASAFQVDIIVDIRPAQEDPEVVKNLVLILKCKKSVNWVIKSFDVKGNLKVIAPNSIGFGKESERSMTMTKLVRDDIPSTQENLMKWALDNGYRPVTSYTMAPVANRFHLRLENHHHHHH

Kd [4]: > 10000 nM
B4: TGF-β2 on the chip with zfBGO bound (1 µM zfBGO in the buffer) (complex)
chain 1: ALDAAYCFRNVQDNCCLRPLYIDFKRDLGWKWIHEPKGYNANFCAGACPYLWSSDTQHSRVLSLYNTINPEASASPCCVSQDLEPLTILYYIGKTPKIEQLSNMIVKSCKCS
chain 2: GSPCELLPVGVGHPVQAMLKSFTALSGCASRGTTSHPQEVHIINLRKGSAQGAREKTAEVALHLRPIQSLHVHQKPLVFILNSPQPILWKVRTEKLAPGVKRIFHVVEGSEVHFEVGNFSKSGEVKVETLPHGNEHLLNWAHHRYTAVTSFSELRMAHDIYIKVGEDPVFSETCKIDNKFLSLNYLASYIEPQPSTGCVLSGPDHEQEVHIIELQAPNSSSAFQVDVIVDLRPLDGDIPLHRDVVLLLKGEKSVNWVIKAHKVMGKLEIMTSDTVSLSEDTERLMQVSKTVKQKLPAGSQALIQWAEENGFNPVTSYTNTPVANHFNLRLREHHHHHH

Kd [5]: 1780 nM
B5: TGF-β2 on the chip with ratBGO bound (1 µM ratBGO in the buffer) (complex)
chain 1: ALDAAYCFRNVQDNCCLRPLYIDFKRDLGWKWIHEPKGYNANFCAGACPYLWSSDTQHSRVLSLYNTINPEASASPCCVSQDLEPLTILYYIGKTPKIEQLSNMIVKSCKCS
chain 2: GSPCELSPINASHPVQALMESFTVLSGCASRGTTGLPREVHVLNLRSTDQGPGQRQREVTLHLNPIASVHTHHKPIVFLLNSPQPLVWHLKTERLAAGVPRLFLVSEGSVVQFPSGNFSLTAETEERNFPQENEHLLRWAQKEYGAVTSFTELKIARNIYIKVGEDQVFPPTCNIGKNFLSLNYLAEYLQPKAAEGCVLPSQPHEKEVHIIELITPSSNPYSAFQVDIIVDIRPAQEDPEVVKNLVLILKCKKSVNWVIKSFDVKGNLKVIAPNSIGFGKESERSMTMTKLVRDDIPSTQENLMKWALDNGYRPVTSYTMAPVANRFHLRLENHHHHHH

Kd [6]: 127 nM
Kd [7]: 1070 nM
Kd [8]: 159 nM
B6: rat betaglycan ZP-C domain (BG_(ZP-C)), mammalian-expressed (domain or fragment)
chain: GNATFNMELYNTDLFLVPSPGVFSVAENEHVYVEVSVTKADQDLGFAIQTCFLSPYSNPDRMSDYTIIENICPKDDSVKFYSSKRVHFPIPHAEVDKKRFSFLFKSVFNTSLLFLHCELTLCSRKKGSLKLPRCVTPDDACTSLDATMIWTMMQNKKTFTKPLAVVLQ

Second part, the binder before the results:

Binder: B2
Kd [2]: > 10000 nM

B3: TGF-β2 on the chip with ratBGO-zfBL bound (1 µM ratBGO-zfBL in the buffer) (complex)
chain 1: ALDAAYCFRNVQDNCCLRPLYIDFKRDLGWKWIHEPKGYNANFCAGACPYLWSSDTQHSRVLSLYNTINPEASASPCCVSQDLEPLTILYYIGKTPKIEQLSNMIVKSCKCS
chain 2: GSPCELSPINASHPVQALMESFTVLSGCASRGTTGLPREVHVLNLRSTDQGPGQRQREVTLHLNPIASVHTHHKPIVFLLNSPQPLVWHLKTERLAAGVPRLFLVSEGSVVQFPSGNFSLTAETEERNFPQENEHLLRWAQKEYGAVTSFTELKIARNIYIKVGEDQVFPPTCNIGKNFLSLNYLAEYLQPKAAEGCVLPSQPHEKEVHIIELITPNSSSAFQVDIIVDIRPAQEDPEVVKNLVLILKCKKSVNWVIKSFDVKGNLKVIAPNSIGFGKESERSMTMTKLVRDDIPSTQENLMKWALDNGYRPVTSYTMAPVANRFHLRLENHHHHHH
Kd [3]: > 10000 nM

B7: BGZP-C E130A (protein)
chain: GNATFNMELYNTDLFLVPSPGVFSVAENEHVYVEVSVTKADQDLGFAIQTCFLSPYSNPDRMSDYTIIENICPKDDSVKFYSSKRVHFPIPHAEVDKKRFSFLFKSVFNTSLLFLHCALTLCSRKKGSLKLPRCVTPDDACTSLDATMIWTMMQNKKTFTKPLAVVLQ
Kd [8]: 1350 nM

B8: BGZP-C S155A (protein)
chain: GNATFNMELYNTDLFLVPSPGVFSVAENEHVYVEVSVTKADQDLGFAIQTCFLSPYSNPDRMSDYTIIENICPKDDSVKFYSSKRVHFPIPHAEVDKKRFSFLFKSVFNTSLLFLHCELTLCSRKKGSLKLPRCVTPDDACTALDATMIWTMMQNKKTFTKPLAVVLQ
Kd [8]: 282 nM

Reference: PMC11865472 (2025)
